Like-named read-outs stand apart in the source and are kept apart here.
Assays:
[1] = tested on: R. torgues (Ruminococcus torques) α-N-acetylgalactosaminidase, isolated to apparent homogeneity; settings: Hoskins et al. 1997; cited from earlier work
[2] = tested on: Recombinant chicken liver α-N-acetylgalactosaminidase; settings: apparent; pH 3.65, 37° C.; Zhu et al. 1996; cited from earlier work
[3] = tested on: E. coli expressed recombinant α-N-acetylgalactosaminidase (New England BioLabs, catalog no. P0734B, proprietary strain); experiment: Apparent Km and Vmax with monosaccharide derivative (p-nitrophenol at 405 nm, Lineweaver-Burk), Table XI; assay type: biochemical; settings: pH 7.0, 37° C.
Method: Commercial Recombinant α-N-Acetylgalactosaminidase (New England Biolabs): • vii) 0.5 mM as a starting concentration of αGalNAc p-nitrophenyl monosaccharide derivative in a tube containing 0.05 M Sodium phosphate buffer pH 7.0 was sequentially diluted 2 fold by mixing it with an equal volume of buffer. […] of enzyme was added to each tube and incubated for 10 min at 37° C. The reaction was quenched by adding an equal volume of 0.2 M sodium borate buffer (pH 9.8). The amount of the liberated p-nitrophenol was determined by measuring the absorbance at 405 nm.

[4] = tested on: Recombinant coffee bean (Coffea canephora) α-galactosidase; settings: apparent; pH 5.5, 26° C.; Zhu et al. 1995; cited from earlier work
[5] = tested on: E. coli expressed recombinant α-N-acetylgalactosaminidase (New England BioLabs, catalog no. P0734B, proprietary strain); experiment: Preliminary Km with tetrasaccharide AMC substrate (densitometric scans of substrate/product ratio); assay type: biochemical; settings: assay unreliable at low concentrations, Km possibly even lower than 20 μM, read-out: Km for the blood group A oligosaccharide substrates
Description: (§1) The assay used for this determination involved densitometric scans of the substrate/product ratio using the tetrasaccharide AMC substrate (GalNAcα1-3(Fucα1-2)Galβ1-4GalNAc-AMC).

[6] = tested on: A2 red blood cells; experiment: Enzymatic conversion of A2 red blood cells, hemagglutination typing; assay type: cell-based, human; settings: A2 donors; chicken enzyme 100-200 U/ml, protocols A-C (pH 7.4 or 5.5, 30-37° C., 180 min to 4 hours)
Description: (§2) It is evident from the data in Table XII that apparent removal of A antigens is achieved, when defined by one particular anti-blood group A specific monoclonal antibody that is not approved for blood typing procedures (DAKO). A large number of such antibodies exist and, due to specificity and low affinity binding, they are inappropriate for serological typing purposes. Development of monoclonal cocktails for ABO routine typing to substitute previously used polyclonal antibody reagents was a major achievement for the blood bank industry in 1990s. […] Details of the typing assay used in this example is as follows: • Approved typing reagents used in hemagglutination assays were murine monoclonal antibodies and plant lectins obtained from Ortho Clinical Diagnostics, Raritan, N.J.; Gamma Biologicals/Immucor, Norcross, Ga. Non-approved reagents included murine monoclonal anti-A antibody from Dako and a panel of monoclonal antibodies to blood group A variants produced by H. Clausen (Clausen et al., Proc. Natl. Acad. Sci. USA 82(4): 1199-203, 1985, Clausen et al., J Biol Chem. 261(3): 1380-7, 1986, Clausen et al., Biochemistry 25(22): 7075-85, 1986, Clausen et al., J Biol Chem. 262(29): 14228-34, 1987). Typing reagents were used according to the manufacturers recommendations and other monoclonal antibodies as determined by titrations. Hemagglutination Assay (Room Temperature) 1. […]

[7] = Activity with blood group A tetrasaccharide AMC substrate (HPTLC); assay type: biochemical
Method: FIG. 10 illustrates the activity of E. coli expressed α-N-acetylgalactosaminidase with the blood group A tetrasaccharide AMC substrate at different pH. Assays were performed in reactions of 10 μl containing 1 nmole of α-tetra, 0.05 μg enzyme, and the buffer Na Citrate-NaPO4 at varying pH 2.6-8.0. Reactions were incubated 40 min at 26° C., and 3 μl samples analyzed by HPTLC. Panel A: HPTLC analysis; Panel B: Substrate cleavage quantified by scanning and plotted against pH.
Assays with Derivatized oligosaccharide substrates (AMC, OGr) were performed by the following procedure: • iii) One (AMC) or 5 (OGr) nmol substrate in reaction mixtures of a total volume of 10 μl containing 50 mM sodium citrate (pH 6.0) was incubated at 26° C. Aliquots of 2.5-3.0 μl were taken at different time points (0′, 15′, 30′, 60′) to follow product development. Product development was analyzed by HPTLC in chloroform-methanol-water (vol/vol/vol: 60/35/8) and visualized by UV or orcinol staining. […]
as §1

[8] = Activity with repetitive A heptasaccharide AMC substrate (HPTLC); assay type: biochemical
Method: FIG. 5b is an HPTLC analysis of five selected Streptomycete α-N-acetylgalactosaminidase activities with the blood group A tetrasaccharide (Panel B-1) and A heptasaccharide AMC (Panel B-2) substrate. Streptomycete strains identified by numbers as in Table VII. […] Reactions were incubated 180 min at 30° C., and 2.5 μl of the reaction mixture was spotted onto HPTLC and developed in CHCl3:methanol:H2O (60:35:8) and photographed. Migration of trisaccharide (H), and tetrasaccharide (A), heptasaccharide and hexasaccharide (H-A) AMC derivatives is indicated by arrows. NE, no enzyme control; rCHl-Az, recombinant Chicken liver A-zyme; Origin, sample application position. The appearance of a disaccharide AMC is due to contaminating α-fucosidase activity.
Aliquots of 2.5-3.0 μl were taken at different time points (0′, 15′, 30′, 60′) to follow product development. Product development was analyzed by HPTLC in chloroform-methanol-water (vol/vol/vol: 60/35/8) and visualized by UV or orcinol staining.

[9] = Activity with blood group A tetrasaccharide AMC substrate (HPTLC); assay type: biochemical; settings: for difference of specific activity, GalNAcα1-pNP versus A tetrasaccharide substrate: pH 3.65; for Specific activity with blood group A tetrasaccharide-AMC: pH 5.5
[10] = tested on: A1 red blood cells; experiment: Enzymatic conversion of A1 red blood cells, hemagglutination typing; assay type: cell-based, human; settings: A1 donors; chicken enzyme 200 U/ml, 50% hematocrit, 37° C., 4 hours (protocols B, C)
Description: as §2

[11] = cited from earlier work; for Specific activity with GalNAcα1-pNP: pH 3.65 (optimal pH)
[12] = Dean and Sweeley 1979; cited from earlier work
[13] = listed as chicken α-N-acetylgalactosaminidase
[14] = listed as recombinant chicken α-N-acetylgalactosaminidase

CC(=O)N[C@H]1[C@@H](Oc2ccc([N+](=O)[O-])cc2)O[C@H](CO)[C@H](O)[C@@H]1O [GalNAcα1-pNP, p-nitrophenyl-α-D-N-acetylgalactosaminopyranoside]
Km [1]: 2 to 8 mM | Km [2]: 827 µM | Vmax [2]: 60.9 U/mg^3 | Km [3]: 10 to 50 µM | Vmax [3]: 3.3 U/mg^3

O=[N+]([O-])c1ccc(O[C@H]2O[C@H](CO)[C@H](O)[C@H](O)[C@H]2O)cc1 [Galα1-pNP, p-nitrophenyl α-galactoside]
Km [4]: 363 µM | Vmax [4]: 46.9 U/mg^1

GalNAcα1-3(Fucα1-2)Galβ1-4GalNAc-AMC
Km [5]: ~20 µM

B1: Recombinant Chicken Liver α-N-acetylgalactosaminidase: Chicken liver α-N-acetylgalactosaminidase, recombinant, expressed in P. pastoris; prior-art enzyme for A cell conversion (protein, UniProt Q90744 1-405, looked up)
Alpha-N-acetylgalactosaminidas …: LENGLARTPPMGWLAWERFRCNVNCREDPRQCISEMLFMEMADRIAEDGWRELGYKYINIDDCWAAKQRDAEGRLVPDPERFPRGIKALADYVHARGLKLDIYGDLGRLTCGGYPGTTLDRVEQDAQTFAEWGVDMLKLDGCYSSGKEQAQGYPQMARALNSTGRPIVYSCSWPAYQGGLPPKVNYTLLGEICNLWRNYDDIQDSWDSVLSIVDWFFTNQDVLQPFAGPGHWNDPDMLIIGNFGLSYEQSRSQMALWTIMAAPLLMSTDLRTISPSAKKILQNRLMIQINQDPLGIQGRRIIKEGSHIEVFLRPLSQAASALVFFSRRTDMPFRYTTSLAKLGFPMGAAYEVQDVYSGKIISGLKTGDNFTVIINPSGVVMWYLCPKALLIQQQAPGGPSRLPLL
Agglutination, Dolichos biflorus, post enzyme treatment [6]: 0 | pH optimum with the blood group A tetrasaccharide AMC substrate ([7]; not shown): 3.5-4.5 | Specific activity with blood group A tetrasaccharide-AMC ([7]; pH 3.65): 0.5 U/mg | Specific activity with blood group A tetrasaccharide-AMC ([7]; pH 3.65, listed as chicken α-N-acetylgalactosaminidase): 0.3 U/mg | Specific activity with blood group A tetrasaccharide-AMC ([7]; pH 3.65, listed as recombinant chicken α-N-acetylgalactosaminidase): 0.3 U/mg | Specific activity with blood group A tetrasaccharide-AMC ([7]; pH 5.5): 0.4 U/mg | specific activity with A type 2 tetrasaccharide AMC derivative (structure 3) ([7]; pH not stated): approximately 0.3 U/mg | Specific activity with repetitive A heptasaccharide-AMC ([8]; pH 3.65): 0.5 U/mg | Specific activity with repetitive A heptasaccharide-AMC ([8]; pH 5.5): 0.4 U/mg | specific activity with repetitive A type 3 AMC derivative (structure 6) ([8]; pH not stated): approximately 0.3 U/mg | difference of specific activity, GalNAcα1-pNP versus A tetrasaccharide substrate [9, 13]: over 100 fold | difference of specific activity, GalNAcα1-pNP versus A tetrasaccharide substrate [9, 14]: 166 fold | Specific activity with blood group A tetrasaccharide-AMC [9, 13]: 0.2 U/mg | Specific activity with blood group A tetrasaccharide-AMC [9, 14]: 0.2 U/mg | Agglutination, Dolichos biflorus, post enzyme treatment [10]: 0 | specific activity using p-nitrophenyl αGalNAc as substrate ([11]; literature values, pH not stated): 51-56 U/mg | Specific activity with GalNAcα1-pNP [11]: 50 U/mg^3 | Specific activity with GalNAcα1-pNP [11, 13]: approximately 50 U/mg | Specific activity with GalNAcα1-pNP [11, 14]: approximately 50 U/mg

B2: human α-N-acetylgalactosaminidase: human α-N-acetylgalactosaminidase (alpha-galactosidase B), isolated, cloned and expressed (protein, UniProt P17050 18-411, looked up)
Alpha-N-acetylgalactosaminidas …: LDNGLLQTPPMGWLAWERFRCNINCDEDPKNCISEQLFMEMADRMAQDGWRDMGYTYLNIDDCWIGGRDASGRLMPDPKRFPHGIPFLADYVHSLGLKLGIYADMGNFTCMGYPGTTLDKVVQDAQTFAEWKVDMLKLDGCFSTPEERAQGYPKMAAALNATGRPIAFSCSWPAYEGGLPPRVNYSLLADICNLWRNYDDIQDSWWSVLSILNWFVEHQDILQPVAGPGHWNDPDMLLIGNFGLSLEQSRAQMALWTVLAAPLLMSTDLRTISAQNMDILQNPLMIKINQDPLGIQGRRIHKEKSLIEVYMRPLSNKASALVFFSCRTDMPYRYHSSLGQLNFTGSVIYEAQDVYSGDIISGLRDETNFTVIINPSGVVMWYLYPIKNLEMSQQ
pH optimum [12]: 3.5

Reference: US7767415B2, “Compositions and methods for modifying blood cell carbohydrates” (Velico Medical, Inc., priority 2001, dated 2010)
